B1: Antibody 1 (germlined IgG1) (antibody, V domains shown)
VH: EVQLLESGGGLVQPGGSLRLSCAASGFTFGNSWMSWVRQAPGKGLEWVSAISGSGGSTYYADSVKGRFTISRDNSKNTLYLQMNSLRAEDTAVYYCTRDLPGIAVAGYWGQGTLVTVSS
VL: DTQMTQSPSTLSASVGDRVTITCRASEGIYHWLAWYQQKPGKAPKLLIYKASSLASGVPSRFSGSGSGTEFTLTISSLQPDDFATYYCQQYSNYPLTFGGGTKLEIKR
notes: also called germlined Antibody 1 IgG1; antibody 1 (IgG1)
B3: Human CXCL13 (MEL cell derived), unglycosylated (ligand)
chain: VLEVYYTSLRCRCVQESSVFIPRRFIDRIQILPRGNGCPRKEIIVWKKNKSIVCVDPQAEWIQRMMEVLRKRSSSTLPVPVF
notes: also called hCXCL13; Unglycosylated hCXCL13
B4: Cynomolgus CXCL13 (MEL cell derived) (ligand)
chain: VLEVYYTHLRCRCVQESSVFIPRRFIDRIQISPRGNGCPRKEIIVWKKNKSVVCVDPQAEWIQRIMEMLRKKSSSTPPVPVF
modifications: glycosylated (site not stated)
notes: also called Cyno CXCL13; glycosylated cyno CXCL13

Assay [1] addresses B3. The experiment in a line: cell-based or functional assay.
For assay [2], the target named is B4. The experiment in a line: cell-based or functional assay.
Assay [3] concerns the target B3. As to the kind of experiment: cell-based or functional assay. The source holds these as a separate data set.
Assay [4] has as its target T1, Glycosylated human CXCL13 (MEL cell derived) (human, UniProt O43927 23-104, glycosylated (site not stated)).
T1 sequence: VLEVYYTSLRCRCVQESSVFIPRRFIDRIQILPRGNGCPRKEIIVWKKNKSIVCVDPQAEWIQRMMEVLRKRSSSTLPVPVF
The experiment in a line: cell-based or functional assay.

Assay [5] has as its target B4. As to the kind of experiment: cell-based or functional assay.
In assay [6] the target is B3. The experiment in a line: cell-based or functional assay. This is another data set of the same source.
In assay [7] the target is B3. The experiment in a line: cell-based or functional assay. This is another data set of the same source.
The target in another assay is T2, CXCL3 (GROγ) (UniProt P19876 35-107).
T2 construct: also called CXCL3 (R&D Systems)
T2 sequence (looked up): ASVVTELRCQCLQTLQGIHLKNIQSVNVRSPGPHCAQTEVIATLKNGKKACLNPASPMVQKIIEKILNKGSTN
The experiment in a line: CXCL13 FLISA competition assay (FMAT, biotinylated human CXCL13 on streptavidin beads). On the procedure: (§1) Samples and reagents were diluted in Assay Buffer (Phosphate Buffered Saline with 0.1% BSA, 0.1% Tween-20 and 0.01% sodium azide). 0.25 nM biotinylated CXCL13 (Almac) was pre-incubated with 0.004% w/v 6-8 μm streptavidin coated polystyrene particles (Spherotec SVP-60-5) for 1 hour at room temperature. The beads were then centrifuged at 3000 rpm for 5 minutes, the supernatant discarded and the pellet resuspended in the original volume of assay buffer to give a 0.004% w/v bead/biotinylated humanCXCL13 mix. 10 μL competitor, assay buffer (total binding control) or excess humanCXCL13 (Non specific binding (NSB) control) was added to a 384 well clear-bottomed non-binding surface assay plate (Costar 3655). 10 μL 5 nM Goat anti-human (H+L) Alexa Fluor®-647 (Invitrogen A21445), 10 μL 0.31 nM Antibody 1 (germlined IgG) and 20 μL Bead/biotinylated CXCL13 mix were then added and the plates incubated for 4 hours at room temperature. FL1 signal was read on the Applied Biosystems Cellular Detection System 8200. Data was analysed using the Wang Goldman algorithm with gating of size 3-12, colour ratio <0.4, minimum count 20.
(§2) Specificity of the germlined Antibody 1 IgG₁ for human CXCL13 (MEL cell derived) over other members of the CXC family of chemokines was determined using the CXCL13 FLISA (Fluorescence linked immunosorbent assay). In this assay the chemokines CXCL3 (R&D Systems), CXCL5 (R&D Systems), CXCL6 (R&D Systems), CXCL8 (R&D Systems), CXCL10 (R&D Systems) and CXCL12 (Peprotech) were tested for competition with biotinylated human CXCL13 (Almac) immobilised on a streptavidin bead for binding to germlined Antibody 1 IgG₁. The biotinylated human CXCL13 antibody-binding interaction was detected with a fluorescently tagged anti-human IgG antibody using Fluorescence Microvolume assay Technology (refer to “Assay Materials and Methods” for details). Standard chemokine names (Zlotnik and Yoshie, 2000) are given together with their most commonly used synonym.

The target of another assay is T3, CXCL5 (ENA-78) (UniProt P42830 37-114, limits assumed).
T3 construct: also called CXCL5 (R&D Systems)
T3 sequence (looked up): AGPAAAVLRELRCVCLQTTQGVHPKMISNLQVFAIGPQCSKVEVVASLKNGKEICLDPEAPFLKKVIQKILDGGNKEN
The description is as above. On the procedure: as §1, §2

The target in the next assay is T4, CXCL6 (GCP-2) (UniProt P80162 38-114, limits assumed).
T4 construct: also called CXCL6 (R&D Systems)
T4 sequence (looked up): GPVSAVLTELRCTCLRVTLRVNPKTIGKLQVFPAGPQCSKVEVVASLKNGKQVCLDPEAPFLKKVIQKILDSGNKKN
The assay is described as above. As for the experimental part: as §1, §2

A further assay concerns the target T5, CXCL8 (IL-8) (UniProt P10145 28-99).
T5 construct: also called CXCL8 (R&D Systems)
T5 sequence (looked up): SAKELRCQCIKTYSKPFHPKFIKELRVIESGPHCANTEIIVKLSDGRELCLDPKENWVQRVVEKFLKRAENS
Described as above. On the procedure:
as §1, §2

For the next assay, the target named is T6, CXCL10 (IP10) (UniProt P02778 22-98).
T6 construct: also called CXCL10 (R&D Systems)
T6 sequence (looked up): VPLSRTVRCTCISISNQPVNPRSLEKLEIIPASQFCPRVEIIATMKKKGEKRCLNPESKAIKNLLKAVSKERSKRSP
The assay is described as above. As for the experimental part:
as §1, §2

Another assay has as its target T7, CXCL12 (SDF-1α) (UniProt P48061-2 22-89).
T7 construct: also called CXCL12 (Peprotech)
The assay is described as above. On the procedure:
as §1, §2

Assay [8] deals with B4. As to the kind of experiment: SPR (BIAcore 2000), IgG captured on Protein G', cyno CXCL13 flowed; average of the 2 experiments of Table 11. The source says:
(§3) Standard amine linkage chemistry was employed to create blank and 265 RU surfaces of Protein G′ (Sigma P4689) on Flow cells (Fc) 1 and 2, respectively, of a normalized CM5 chip (BIAcore, BR-1000-14). This Fc 2 Protein G′ surface was used to capture 240-385 RUs Antibody 1 (germlined IgG₁).
In general terms: Surface plasmon resonance follows binding to a sensor surface in real time, without labels.

Assay [9] addresses B3. The experiment in a line: SPR (BIAcore 2000), IgG captured on Protein G', human CXCL13 flowed; average of the 3 experiments of Table 10a.
Source text: as §3

Assay [10] addresses B4. As to the kind of experiment: SPR (BIAcore 2000), IgG amine-coupled to a CM3 chip, cyno CXCL13 0.10-0.60 nM flowed; 1:1 Langmuir (n=1, initial data). On the procedure: (§4) Antibodies were diluted to 1.0 μg mL-1 in 10 mM acetate buffer pH 4.5. Standard amine linkage chemistry (using amine coupling kit BR-1000-50) was employed to create blank (Fc 1) and 500 RU surfaces of IgG on a CM3 chip (BIAcore, BR-1005-41, lot: 1160100 expiry April '07). The wash solution employed was Glycine pH 2.0.
(§5) Flow of human and cynomolgus CXCL13 over chip surfaces. A dilution series of each CXCL13 (0.10, 0.20, 0.30, 0.40, 0.50 and 0.60 nM) was constructed in HBS-EP buffer and flowed at 30 μL min-1 over all flow cells (association time of 4 minutes, dissociation for 10 minutes and regeneration with two 20 μL pulses of 10 mM Glycine pH 2.0). Blank injections were made with the same buffer. All solutions were prepared and stored in polypropylene.

The target in assay [11] is B3. As to the kind of experiment: SPR (BIAcore 2000), IgG amine-coupled to a CM3 chip, human CXCL13 0.10-0.60 nM flowed; 1:1 Langmuir (n=1, initial data). As for the experimental part: as §4, §5
Assay [12] has as its target B3. The experiment in a line: SPR (BIAcore 2000), IgG captured on Protein G', human CXCL13 0.25-20 nM flowed; 1:1 Langmuir with mass transport limitation.
Source text: as §3

Assay [13] has as its target B4. The experiment in a line: SPR (BIAcore 2000), IgG captured on Protein G', cyno CXCL13 0.125-40 nM flowed; 1:1 Langmuir with mass transport limitation.
Source text: as §3

Assay [14] concerns the target T8, Biotinylated human CXCL13 (Almac) (human, UniProt O43927 23-109, biotin at the most C terminal lysine residue).
T8 construct: also called human CXCL13 biotinylated near the C-terminus (Almac custom synthesis)
T8 sequence: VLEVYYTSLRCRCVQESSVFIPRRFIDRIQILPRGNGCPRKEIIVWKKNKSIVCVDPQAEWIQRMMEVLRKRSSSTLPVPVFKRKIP
As to the kind of experiment: SPR (BIAcore 2000), 28 RU biotinylated human CXCL13 captured on streptavidin, Fab 0.065-2.105 nM flowed. The source says: Standard amine linkage chemistry was employed to create blank (Fc 1) and 228 and 303 RU surfaces of Streptavidin (Perbio/Pierce 21125) on Flow cells (Fc) 2 and 3, respectively, of a normalized CM5 chip (BIAcore, BR-1000-14). This Fc 3 streptavidin surface was used to capture 28 RUs human CXCL13 biotinylated near the C-terminus (Almac custom synthesis).

The target of assay [15] is B1. As to the kind of experiment: CXCL13 FLISA competition: soluble chemokine titrated against 0.31 nM Antibody 1 germlined IgG1 binding to bead-bound biotinylated human CXCL13 (n = 1). As for the experimental part: as §1, with “10 μL 5 nM Goat anti-human (H+L) Alexa Fluor®-647 (Invitrogen A21445), 10 μL 0.31 nM Antibody 1 (germlined IgG) and 20 μL Bead/biotinylated CXCL13 mix were then added and the plates incubated for 4 hours at room temperature.” left out
(§6) Specificity of the germlined Antibody 1 IgG₁ for human CXCL13 (MEL cell derived) over other members of the CXC family of chemokines was determined using the CXCL13 FLISA (Fluorescence linked immunosorbent assay). […] The biotinylated human CXCL13 antibody-binding interaction was detected with a fluorescently tagged anti-human IgG antibody using Fluorescence Microvolume assay Technology (refer to “Assay Materials and Methods” for details). […]

Assay [16] addresses B1. As to the kind of experiment: CXCL13 FLISA competition: soluble chemokine titrated against Antibody 1 germlined IgG1 binding to bead-bound biotinylated human CXCL13 (n = 1). As for the experimental part:
as §1, with “10 μL 5 nM Goat anti-human (H+L) Alexa Fluor®-647 (Invitrogen A21445), 10 μL 0.31 nM Antibody 1 (germlined IgG) and 20 μL Bead/biotinylated CXCL13 mix were then added and the plates incubated for 4 hours at room temperature.” left out
as §6

Values joined by “and” are separate entries in the source; they are usually repeats but may differ in a detail not shown here. Identical values can stand only once.

In the case of B1, the “IC50, LANCE CXCL13 cAMP assay (CHO Gqi5 hCXCR5 cells)” value in assay [1] was 1.6 nM; in assay [2], 0.3 nM. The “IC50, B300.19 hCXCR5 chemotaxis assay (ED80 concentration of CXCL13)” value in [3] amounted to 6.22 nM; in assay [4] it was 3.94 nM; in [5] it was 4.53 nM. Moreover, in [6], the “IC50, CXCL13 mediated CHO Gqi5 hCXCR5 c4.4 Ca2+ release assay (FLIPR)” value was 10.4 nM. The “IC50, human tonsillar B cell chemotaxis assay (100 nM human non-glycosylated CXCL13, ED80; n=4)” value in assay [7] turned out to be 9.59 nM. Also, the binding result with CXCL3 (GROγ), with CXCL5 (ENA-78), in the assay with CXCL6 (GCP-2), with CXCL8 (IL-8), with CXCL10 (IP10) and with CXCL12 (SDF-1α) was “no binding (tested: 1 µM)” throughout. Further, the equilibrium dissociation constant (Kd) in [8] is 0.0311 nM; in assay [9] it was 0.0414 nM; in [10], 0.285 nM; in assay [11] it was 0.259 nM; in [12], 0.0322 nM and 0.0504 nM and 0.0417 nM; in assay [13] it was 0.033 nM and 0.0291 nM. The koff in [8] is 0.000625 s⁻¹; in assay [9], 0.000712 s⁻¹; in assay [10], 0.00104 s⁻¹; in assay [11], 0.000524 s⁻¹; in assay [12], 0.000684 s⁻¹ and 0.000715 s⁻¹ and 0.000736 s⁻¹; in assay [13], 0.00065 s⁻¹ and 0.000599 s⁻¹. Moreover, the on-rate (kon) in assay [8] was 2.01e+07 M⁻¹ s⁻¹; in assay [9] it was 1.77e+07 M⁻¹ s⁻¹; in assay [10], 3.63e+06 M⁻¹ s⁻¹; in [11], 2.02e+06 M⁻¹ s⁻¹; in assay [12], 2.13e+07 M⁻¹ s⁻¹ and 1.42e+07 M⁻¹ s⁻¹ and 1.76e+07 M⁻¹ s⁻¹; in assay [13] it was 1.97e+07 M⁻¹ s⁻¹ and 2.05e+07 M⁻¹ s⁻¹.

B2: Antibody 1 (germlined IgG1) Fab (Fab, V domains shown)
VH: EVQLLESGGGLVQPGGSLRLSCAASGFTFGNSWMSWVRQAPGKGLEWVSAISGSGGSTYYADSVKGRFTISRDNSKNTLYLQMNSLRAEDTAVYYCTRDLPGIAVAGYWGQGTLVTVSS
VL: DTQMTQSPSTLSASVGDRVTITCRASEGIYHWLAWYQQKPGKAPKLLIYKASSLASGVPSRFSGSGSGTEFTLTISSLQPDDFATYYCQQYSNYPLTFGGGTKLEIKR
notes: also called Size Exclusion Chromatography monomerized Fab fragments of Antibody 1
In the case of B2, in assay [14], the dissociation constant Kd is 0.185 nM, the koff was 0.00166 s⁻¹ and the on-rate constant (kon) was determined as 8.98e+06 M⁻¹ s⁻¹.

Take B3: the 50% inhibitory concentration (IC50) in assay [15] amounted to 0.2 nM.

For B4, in assay [16], the IC50 came out at 0.8 nM.

One may read the Kd as the free concentration of one partner at which half of the binding sites on the other are occupied at equilibrium, for simple one-to-one binding. Read a low Kd as a tighter complex. One may read the koff as the first-order rate constant of dissociation. Low readings indicate a long-lived complex, high ones a short-lived complex. As usually defined, the kon is the rate constant with which the complex forms. Read a low kon as slower complex formation. What is called IC50 is the concentration needed to halve the response being measured. The low end stands for greater potency in that assay, the high end for weaker potency in that assay.
